# US20150299268A1 (UNIVERSITY OF MARYLAND BALTIMORE, published 2015)
# B1: JR4 (antibody, V domains shown)
# VH: EVQLVESGPGLVKPLETLSLTCAVPGGSIRRNYWSWIRQPPGKGLEWIGHSYGSGGSTNYNPSLESRVTLSVDTSKNLFSLKLTSVTAADTAVYYCARTVWYYTSGTHYFDHWGQGVLVTVSS
# VL: QSVLTQPPSVSAAPGQKVTISCSGSSSNIGRSYVSWYQQVPGAAPKLLIYDTNKRPSGVSDRFSGSKSGSSASLAITGLQTGDEADYYCGAWDGSLNVHIFGSGTKLTVL
# B2: b12 (antibody, V domains shown)
# VH: QVQLVQSGAEVKKPGASVKVSCQASGYRFSNFVIHWVRQAPGQRFEWMGWINPYNGNKEFSAKFQDRVTFTADTSANTAYMELRSLRSADTAVYYCARVGPYSWDDSPQDNYYMDVWGKGTTVIVSS
# VL: EIVLTQSPGTLSLSPGERATFSCRSSHSIRSRRVAWYQHKPGQAPRLVIHGVSNRASGISDRFSGSGSGTDFTLTITRVEPEDFALYYCQVYGASSYTFGQGTKLERK
# What was measured:
# [1] = target: gp120-JR4-ScFV; experiment: ELISA
# [2] = target: gp120-b12-ScFV; experiment: ELISA
# [3] = target: T1, BaL-gp120 (HIV-1 BaL); experiment: ELISA
# T1 construct: domain: gp120; also called monomeric gp120; monomeric BaL gp120
# [4] = target: T2, FLSC R/T (HIV-1, UniProt P01730 26-208); experiment: ELISA
# T2 construct: not shown: linker of FLSC not described
# [5] = target: gp120-JR48.1-ScFV; experiment: ELISA
# [6] = target: gp120-JR4-ScFV; experiment: ELISA; remark: listed apart in the source
# [7] = target: T3, BaL-gp120-G495A (HIV-1 BaL); experiment: capture ELISA
# T3 construct: domain: gp120
# [8] = target: T4, BaL-gp120-E47A (HIV-1 BaL); experiment: capture ELISA
# T4 construct: domain: gp120
# [9] = target: T5, BaL-gp120-E31A (HIV-1 BaL); experiment: capture ELISA
# T5 construct: domain: gp120
# [10] = target: T6, BaL-gp120-V75A (HIV-1 BaL); experiment: capture ELISA
# T6 construct: domain: gp120
# [11] = target: T7, BaL-gp120-S158A (HIV-1 BaL); experiment: capture ELISA
# T7 construct: domain: gp120
# [12] = target: T8, BaL-gp120-W45A (HIV-1 BaL); experiment: capture ELISA
# T8 construct: domain: gp120
# [13] = target: T9, BaL-gp120-K46A (HIV-1 BaL); experiment: capture ELISA
# T9 construct: domain: gp120
# [14] = target: T10, BaL-gp120-E32A (HIV-1 BaL); experiment: capture ELISA
# T10 construct: domain: gp120
# [15] = target: T11, BaL-gp120-T303A (HIV-1 BaL); experiment: capture ELISA
# T11 construct: domain: gp120; glycan mutant, V3 region
# [16] = target: T12, BaL-gp120-P493A (HIV-1 BaL); experiment: capture ELISA
# T12 construct: domain: gp120
# [17] = target: T13, BaL-gp120-S200A (HIV-1 BaL); experiment: capture ELISA
# T13 construct: domain: gp120; also called 5200A
# [18] = target: T14, BaL-gp120-D57AD78A (HIV-1 BaL); experiment: capture ELISA
# T14 construct: domain: gp120
# [19] = target: T15, BaL-gp120-I491A (HIV-1 BaL); experiment: capture ELISA
# T15 construct: domain: gp120
# [20] = target: T16, BaL-gp120-Y61A (HIV-1 BaL); experiment: capture ELISA
# T16 construct: domain: gp120
# [21] = target: T17, BaL-gp120-F53A (HIV-1 BaL); experiment: capture ELISA
# T17 construct: domain: gp120
# [22] = target: T18, BaL-gp120-E106AD107A (HIV-1 BaL); experiment: capture ELISA
# T18 construct: domain: gp120
# [23] = target: T19, BaL-gp120-T162A (HIV-1 BaL); experiment: capture ELISA
# T19 construct: domain: gp120; glycan mutant
# [24] = target: T20, BaL-gp120-T499A (HIV-1 BaL); experiment: capture ELISA
# T20 construct: domain: gp120
# [25] = target: T21, BaL-gp120-D57A (HIV-1 BaL); experiment: capture ELISA
# T21 construct: domain: gp120
# [26] = target: T22, BaL-gp120-V44A (HIV-1 BaL); experiment: capture ELISA
# T22 construct: domain: gp120
# [27] = target: T23, BaL-gp120-D62A (HIV-1 BaL); experiment: capture ELISA
# T23 construct: domain: gp120
# [28] = target: T24, BaL-gp120-W69A (HIV-1 BaL); experiment: capture ELISA
# T24 construct: domain: gp120
# [29] = target: T25, BaL-gp120-I423A (HIV-1 BaL); experiment: capture ELISA
# T25 construct: domain: gp120
# [30] = target: T26, BaL-gp120-R58AK59A (HIV-1 BaL); experiment: capture ELISA
# T26 construct: domain: gp120
# [31] = target: core-V1V2-D7 (HIV-1); experiment: capture ELISA
# [32] = target: T27, BaL-gp120-V68A (HIV-1 BaL); experiment: capture ELISA
# T27 construct: domain: gp120
# [33] = target: T28, BaL-gp120-R476AR480A (HIV-1 BaL); experiment: capture ELISA
# T28 construct: domain: gp120
# [34] = target: T29, BaL-gp120-K33A (HIV-1 BaL); experiment: capture ELISA
# T29 construct: domain: gp120
# [35] = target: T30, BaL-gp120-Y40A (HIV-1 BaL); experiment: capture ELISA
# T30 construct: domain: gp120
# [36] = target: BaL-gp120-dV2 (HIV-1 BaL); experiment: capture ELISA
# [37] = target: BaL-gp120-dV1 (HIV-1 BaL); experiment: capture ELISA
# [38] = target: T31, BaL-gp120-P76A (HIV-1 BaL); experiment: capture ELISA
# T31 construct: domain: gp120
# [39] = target: T32, BaL-gp120-V496A (HIV-1 BaL); experiment: capture ELISA
# T32 construct: domain: gp120
# [40] = target: T33, BaL-gp120-K487AK490A (HIV-1 BaL); experiment: capture ELISA
# T33 construct: domain: gp120
# [41] = target: T34, BaL-gp120-E492A (HIV-1 BaL); experiment: capture ELISA
# T34 construct: domain: gp120
# [42] = target: T1, BaL-gp120; experiment: capture ELISA
# [43] = target: T35, BaL-gp120-D57AD62A (HIV-1 BaL); experiment: capture ELISA
# T35 construct: domain: gp120
# [44] = target: T36, BaL-gp120-P498A (HIV-1 BaL); experiment: capture ELISA
# T36 construct: domain: gp120
# [45] = target: T37, BaL-gp120-T455A (HIV-1 BaL); experiment: capture ELISA
# T37 construct: domain: gp120
# [46] = target: T38, BaL-gp120-W35A (HIV-1 BaL); experiment: capture ELISA
# T38 construct: domain: gp120
# [47] = target: T39, BaL-gp120-D78A (HIV-1 BaL); experiment: capture ELISA
# T39 construct: domain: gp120
# [48] = target: core-D7 (HIV-1); experiment: capture ELISA
# [49] = target: T40, BaL-gp120-K500A (HIV-1 BaL); experiment: capture ELISA
# T40 construct: domain: gp120
# [50] = target: BaL-gp120-dV3 (HIV-1 BaL); experiment: capture ELISA
# [51] = target: core-V3-D7 (HIV-1); experiment: capture ELISA
# [52] = target: T41, BaL-gp120-E47AE91A (HIV-1 BaL); experiment: capture ELISA
# T41 construct: domain: gp120
# [53] = target: T42, BaL-gp120-I420R (HIV-1 BaL); experiment: capture ELISA
# T42 construct: domain: gp120; also called -1420R
# [54] = target: T43, BaL-gp120-R476A (HIV-1 BaL); experiment: capture ELISA
# T43 construct: domain: gp120
# [55] = target: BaL-gp120-mV3 (HIV-1 BaL); experiment: capture ELISA
# [56] = target: T44, BaL-gp120-H105A (HIV-1 BaL); experiment: capture ELISA
# T44 construct: domain: gp120
# [57] = target: T45, BaL-gp120-L494A (HIV-1 BaL); experiment: capture ELISA
# T45 construct: domain: gp120
# [58] = target: T46, BaL-gp120-Y39A (HIV-1 BaL); experiment: capture ELISA
# T46 construct: domain: gp120
binder,measurement,setting,value
B1,Fold of Ab needed for ELISA binding OD equal to half max on gp120,[1],> 100 fold
same,Fold of Ab needed for ELISA binding OD equal to half max on gp120,[2],0.09 fold
same,Fold of Ab needed for ELISA binding OD equal to half max on gp120,[3],1 fold
same,Fold of Ab needed for ELISA binding OD equal to half max on gp120,[4],0.11 fold
same,Fold of Ab needed for ELISA binding OD equal to half max on gp120,[5],0.21 fold
same,binding result,[6],no binding (tested: >100 fold of the Ab needed on gp120)
B2,% Binding,[7],90%
same,% Binding,[8],100%
same,% Binding,[9],86%
same,% Binding,[10],93%
same,% Binding,[11],80%
same,% Binding,[12],96%
same,% Binding,[13],93%
same,% Binding,[14],104%
same,% Binding,[15],92%
same,% Binding,[16],95%
same,% Binding,[17],86%
same,% Binding,[18],96%
same,% Binding,[19],98%
same,% Binding,[20],85%
same,% Binding,[21],91%
same,% Binding,[22],80%
same,% Binding,[23],110%
same,% Binding,[24],107%
same,% Binding,[25],95%
same,% Binding,[26],94%
same,% Binding,[27],98%
same,% Binding,[28],97%
same,% Binding,[29],96%
same,% Binding,[30],101%
same,% Binding,[31],103%
same,% Binding,[32],83%
same,% Binding,[33],68%
same,% Binding,[34],89%
same,% Binding,[35],106%
same,% Binding,[36],87%
same,% Binding,[37],90%
same,% Binding,[38],96%
same,% Binding,[39],100%
same,% Binding,[40],85%
same,% Binding,[41],105%
same,% Binding,[42],100%
same,% Binding,[43],103%
same,% Binding,[44],97%
same,% Binding,[45],90%
same,% Binding,[46],107%
same,% Binding,[47],92%
same,% Binding,[48],106%
same,% Binding,[49],93%
same,% Binding,[50],109%
same,% Binding,[51],102%
same,% Binding,[52],86%
same,% Binding,[53],101%
same,% Binding,[54],101%
same,% Binding,[55],100%
same,% Binding,[56],100%
same,% Binding,[57],95%
same,% Binding,[58],90%
